Measured values reported in US20160130327A1.

What was measured:
[1] = molecular target: revertant virus (AD169 CMV with the pentameric gH complex restored); experiment: cell-based or functional assay
[2] = molecular target: revertant virus (AD169 CMV with the pentameric gH complex restored); experiment: antibody-titration EIA, coated revertant virions

## human polyclonal CMV hyperimmune IgG (HIG, CytoGam) (antibody)
[1]
  EC50 neutralizing (ARPE-19 cells): 1 µg/mL
[2]
  EC50: 2 µg/mL
